Residue numbers refer to the chain shown, from its start. Names may count otherwise. Values belong to the molecule of their own block, whether it stands above or below them.
Experiments:
[1] = molecular target: replication protein A (RPA) (UniProt P22336)
[2] = molecular target: replication protein A (RPA) (UniProt P22336); remark: listed apart in the source
[3] = molecular target: T1, Saccharomyces cerevisiae clamp loader replication factor C (RFC) with a full-length Rfc1 subunit (S. cerevisiae, UniProt P38630 1-861; P40348 1-353; P38629 1-340; P40339 1-323; P38251 1-354); assay: stopped-flow fluorescence (PCNA-AF488_2 clamp closing); sequential mixing: 20 nM RFC, 20 nM PCNA-AF488_2 and 0.5 mM ATP incubated 4 s, then mixed with 40 nM 5′DNA pre-bound to 400 nM RPA, ATP and 200 nM unlabeled PCNA; 20°C; 30 mM HEPES pH 7.5, 150 mM NaCl, 10 mM MgCl2, 10% glycerol, 100 mM maltose; conditions: both partners purified
T1 construct: Rfc1 subunit of S. cerevisiae RFC; Rfc2 subunit of S. cerevisiae RFC; Rfc3 subunit of S. cerevisiae RFC; Rfc4 subunit of S. cerevisiae RFC; Rfc5 subunit of S. cerevisiae RFC; Pentamer of Rfc1-5; source: E. coli BL21 (DE3) Rosetta, expressed from a single plasmid, purified (HighTrap SP, HighTrap heparin, MonoQ); copies: 1 + 1 + 1 + 1 + 1

[4] = molecular target: T1, Saccharomyces cerevisiae clamp loader …; assay: stopped-flow fluorescence (PCNA-MDCC release from RFC); PCNA labeled with MDCC on the surface to which RFC binds; fluorescence of the RFC·PCNA-MDCC complex is greater than that of unbound PCNA-MDCC; release followed after mixing with DNA substrates with and without bound SSB/RPA; 20°C; single exponential fit; conditions: both partners purified

replication protein A (RPA), sequence (P22336 whole entry, chain 1 of 3): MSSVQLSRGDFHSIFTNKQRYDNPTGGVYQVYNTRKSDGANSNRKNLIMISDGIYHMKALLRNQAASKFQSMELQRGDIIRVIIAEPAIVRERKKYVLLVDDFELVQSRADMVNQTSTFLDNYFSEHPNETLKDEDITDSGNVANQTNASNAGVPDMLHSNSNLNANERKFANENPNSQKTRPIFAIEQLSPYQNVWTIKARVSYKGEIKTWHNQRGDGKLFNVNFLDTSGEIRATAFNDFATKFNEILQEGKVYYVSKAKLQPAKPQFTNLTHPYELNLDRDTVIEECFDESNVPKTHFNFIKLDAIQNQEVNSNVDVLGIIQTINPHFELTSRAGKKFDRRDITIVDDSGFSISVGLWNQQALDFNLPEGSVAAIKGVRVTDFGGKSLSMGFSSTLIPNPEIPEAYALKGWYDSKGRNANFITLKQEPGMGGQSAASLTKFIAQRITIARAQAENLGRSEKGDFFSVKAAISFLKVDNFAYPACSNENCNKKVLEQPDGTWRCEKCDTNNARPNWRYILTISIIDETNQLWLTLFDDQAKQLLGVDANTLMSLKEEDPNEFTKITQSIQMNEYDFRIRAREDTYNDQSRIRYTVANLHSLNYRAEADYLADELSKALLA
replication protein A (RPA), sequence (P26754 whole entry, chain 2 of 3, further chain): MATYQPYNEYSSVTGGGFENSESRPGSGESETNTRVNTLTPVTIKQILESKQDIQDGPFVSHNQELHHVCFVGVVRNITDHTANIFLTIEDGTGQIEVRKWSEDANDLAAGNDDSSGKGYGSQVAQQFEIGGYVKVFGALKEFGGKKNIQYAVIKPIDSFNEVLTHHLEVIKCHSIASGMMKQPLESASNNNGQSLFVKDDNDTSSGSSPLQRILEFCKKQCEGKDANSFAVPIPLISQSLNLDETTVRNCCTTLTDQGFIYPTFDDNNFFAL
replication protein A (RPA), sequence (P26755 whole entry, chain 3 of 3, further chain): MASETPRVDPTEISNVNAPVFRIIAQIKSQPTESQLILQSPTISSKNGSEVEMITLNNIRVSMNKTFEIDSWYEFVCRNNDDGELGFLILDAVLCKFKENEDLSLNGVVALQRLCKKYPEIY

k obs1 of PCNA-AF488 2 closing by RFC on 3′DNA·RPA [1]: 4.4 s⁻¹
kobs of PCNA-AF488 2 closing by RFC on phosphorylated 5′DNA·RPA [1]: 0.09 s⁻¹
k obs1 of PCNA closing by RFC on 3′DNA with the non-cognate SSB substituted for RPA [2]: 4.6 s⁻¹
rate of PCNA closing by RFC on 5′DNA with the non-cognate SSB substituted for RPA [2]: 0.45 s⁻¹
Molecule: Saccharomyces cerevisiae clamp loader replication factor C (RFC) with a full-length Rfc1 subunit (from UniProt P38630 1-861; P40348 1-353; P38629 1-340; P40339 1-323; P38251 1-354) (complex)

binding result [3]: binds
B1: PCNA-AF488_(2) (S. cerevisiae PCNA, C22/62/81S, I111C, I181C, labeled with AF488) (natural protein, UniProt P15873 1-258, looked up)
chain: MLEAKFEEASLFKRIIDGFKDSVQLVNFQCKEDGIIAQAVDDSRVLLVSLEIGVEAFQEYRSDHPVTLGMDLTSLSKILRSGNNTDTLTLIADNTPDSIILLFEDTKKDRCAEYSLKLMDIDADFLKIEELQYDSTLSLPSSEFSKIVRDLSQLSDSINIMITKETIKFVADGDIGSGSVCIKPFVDMEHPETSIKLEMDQPVDLTFGAKYLLDIIKGSSLSDRVGIRLSSEAPALFQFDLKSGFLQFFLAPKFNDEE
modifications: AF488 on the cysteines introduced at positions 111 and 181
notes: proliferating cell nuclear antigen (PCNA), the S. cerevisiae sliding clamp; also called fluorescent PCNA; source: purified as described previously

binding result [4]: binds
B2: PCNA-MDCC (S. cerevisiae PCNA, C22/62/81S, S43C, labeled with MDCC) (natural protein, UniProt P15873 1-258, looked up)
chain: B1 chain with S43C, C111I, C181I
modifications: MDCC on the cysteine introduced at position 43
notes: proliferating cell nuclear antigen (PCNA), the S. cerevisiae sliding clamp; source: purified as described previously

From paper PMC4176372, “The interplay of primer-template DNA phosphorylation status and single-stranded DNA binding proteins in directing clamp loaders to the appropriate polarity of DNA” (Nucleic Acids Research, 2014)
